{"source": "the supplement of paper PMC10567573", "parents": {"B1": {"name": "IKZF1 (parent)", "chain": "RDPFECNMCGYHSQDRYEFSSHIT"}}, "data": [{"variants_of": "B1", "experiment": "protein stability index of a GFP-peptide fusion (GPS, HEK-293T) (PSI 1-6); higher = more stable", "conditions": "c terminus: a fixed tail appended", "values": [{"variant": "RDPFECNMCGYHSQDRYRFSSHIT", "note": "[E18R]", "protein stability index": 1.99}, {"variant": "RDPFECNMCGYHSQDRYSFSSHIT", "note": "[E18S]", "protein stability index": 2.11}, {"variant": "RDPFECNMCGYHSQDRYVFSSHIT", "note": "[E18V]", "protein stability index": 2.72}, {"variant": "RDPFECNMCGYHSQDRYPFSSHIT", "note": "[E18P]", "protein stability index": 1.67}, {"variant": "RDPFECNMCGYHSQDRYQFSSHIT", "note": "[E18Q]", "protein stability index": 1.79}, {"variant": "RDPFECNMCGYHSQDRYWFSSHIT", "note": "[E18W]", "protein stability index": 1.51}, {"variant": "RDPFECNMCGYHSQDRYYFSSHIT", "note": "[E18Y]", "protein stability index": 1.43}, {"variant": "RDPFECNMCGYHSQDRYTFSSHIT", "note": "[E18T]", "protein stability index": 1.54}, {"variant": "RDPFECNMCGYHSQDRYEFLSHIT", "note": "[S20L]", "protein stability index": 2.44}, {"variant": "RDPFECNMCGYHSQDRYEFQSHIT", "note": "[S20Q]", "protein stability index": 1.94}, {"variant": "RDPFECNMCGYHSQDRYEFGSHIT", "note": "[S20G]", "protein stability index": 2.05}, {"variant": "RDPFECNMCGYHSQDRYEFDSHIT", "note": "[S20D]", "protein stability index": 2.3}, {"variant": "RDPFECNMCGYHSQDRYEFKSHIT", "note": "[S20K]", "protein stability index": 1.93}, {"variant": "RDPFECNMCGYHSQDRYEFPSHIT", "note": "[S20P]", "protein stability index": 2.51}, {"variant": "RDPFECNMCGYHSQDRYEFYSHIT", "note": "[S20Y]", "protein stability index": 1.71}, {"variant": "RDPFECNMCGYHSQDRYEFHSHIT", "note": "[S20H]", "protein stability index": 2.21}, {"variant": "RDPFECNMCGYHSQDRYEFFSHIT", "note": "[S20F]", "protein stability index": 1.59}, {"variant": "RDPFECNMCGYHSQDRYEFISHIT", "note": "[S20I]", "protein stability index": 2.06}, {"variant": "RDPFECNMCGYHSQDRYEFVSHIT", "note": "[S20V]", "protein stability index": 2.16}, {"variant": "RDPFECNMCGYHSQDRYEFWSHIT", "note": "[S20W]", "protein stability index": 2.15}, {"variant": "RDPFECNMCGYHSQDRYEFMSHIT", "note": "[S20M]", "protein stability index": 2.06}, {"variant": "RDPFECNMCGYHSQDRYEFASHIT", "note": "[S20A]", "protein stability index": 2.13}, {"variant": "RDPFECNMCGYHSQDRYEFNSHIT", "note": "[S20N]", "protein stability index": 2.08}, {"variant": "RDPFECNMCGYHSQDRYEFESHIT", "note": "[S20E]", "protein stability index": 2.64}, {"variant": "RDPFECNMCGYHSQDRYEFRSHIT", "note": "[S20R]", "protein stability index": 2.08}, {"variant": "RDPFECNMCGYHSQDRYEFCSHIT", "note": "[S20C]", "protein stability index": 3.08}, {"variant": "RDPFECNMCGYHSQDRYEFTSHIT", "note": "[S20T]", "protein stability index": 2.04}, {"variant": "RDPFECNMCGYHSQDRYEFSLHIT", "note": "[S21L]", "protein stability index": 2.03}, {"variant": "RDPFECNMCGYHSQDRYEFSVHIT", "note": "[S21V]", "protein stability index": 2.36}, {"variant": "RDPFECNMCGYHSQDRYEFSYHIT", "note": "[S21Y]", "protein stability index": 1.57}, {"variant": "RDPFECNMCGYHSQDRYEFSPHIT", "note": "[S21P]", "protein stability index": 2.68}, {"variant": "RDPFECNMCGYHSQDRYEFSMHIT", "note": "[S21M]", "protein stability index": 1.84}, {"variant": "RDPFECNMCGYHSQDRYEFSRHIT", "note": "[S21R]", "protein stability index": 1.84}, {"variant": "RDPFECNMCGYHSQDRYEFSEHIT", "note": "[S21E]", "protein stability index": 2.27}, {"variant": "RDPFECNMCGYHSQDRYEFSCHIT", "note": "[S21C]", "protein stability index": 2.21}, {"variant": "RDPFECNMCGYHSQDRYEFSDHIT", "note": "[S21D]", "protein stability index": 2.17}, {"variant": "RDPFECNMCGYHSQDRYEFSFHIT", "note": "[S21F]", "protein stability index": 2.06}, {"variant": "RDPFECNMCGYHSQDRYEFSAHIT", "note": "[S21A]", "protein stability index": 1.81}, {"variant": "RDPFECNMCGYHSQDRYEFSHHIT", "note": "[S21H]", "protein stability index": 2.63}, {"variant": "RDPFECNMCGYHSQDRYEFSIHIT", "note": "[S21I]", "protein stability index": 2.28}, {"variant": "RDPFECNMCGYHSQDRYEFSTHIT", "note": "[S21T]", "protein stability index": 2.35}, {"variant": "RDPFECNMCGYHSQDRYEFSQHIT", "note": "[S21Q]", "protein stability index": 1.83}, {"variant": "RDPFECNMCGYHSQDRYEFSKHIT", "note": "[S21K]", "protein stability index": 2.28}, {"variant": "RDPFECNMCGYHSQDRYEFSNHIT", "note": "[S21N]", "protein stability index": 2.3}, {"variant": "RDPFECNMCGYHSQDRYEFSWHIT", "note": "[S21W]", "protein stability index": 2.31}, {"variant": "RDPFECNMCGYHSQDRYEFSGHIT", "note": "[S21G]", "protein stability index": 2.38}, {"variant": "RDPFECNMCGYHSQDRYEFSSHAT", "note": "[I23A]", "protein stability index": 2.23}, {"variant": "RDPFECNMCGYHSQDRYEFSSHCT", "note": "[I23C]", "protein stability index": 2.59}, {"variant": "RDPFECNMCGYHSQDRYEFSSHPT", "note": "[I23P]", "protein stability index": 2.35}, {"variant": "RDPFECNMCGYHSQDRYEFSSHYT", "note": "[I23Y]", "protein stability index": 1.82}, {"variant": "RDPFECNMCGYHSQDRYEFSSHNT", "note": "[I23N]", "protein stability index": 2.28}, {"variant": "RDPFECNMCGYHSQDRYEFSSHDT", "note": "[I23D]", "protein stability index": 3.32}, {"variant": "RDPFECNMCGYHSQDRYEFSSHRT", "note": "[I23R]", "protein stability index": 2}, {"variant": "RDPFECNMCGYHSQDRYEFSSHFT", "note": "[I23F]", "protein stability index": 2.03}, {"variant": "RDPFECNMCGYHSQDRYEFSSHMT", "note": "[I23M]", "protein stability index": 2.27}, {"variant": "RDPFECNMCGYHSQDRYEFSSHKT", "note": "[I23K]", "protein stability index": 2.75}, {"variant": "RDPFECNMCGYHSQDRYEFSSHGT", "note": "[I23G]", "protein stability index": 2.43}, {"variant": "RDPFECNMCGYHSQDRYEFSSHVT", "note": "[I23V]", "protein stability index": 2.43}, {"variant": "RDPFECNMCGYHSQDRYEFSSHWT", "note": "[I23W]", "protein stability index": 1.77}, {"variant": "RDPFECNMCGYHSQDRYEFSSHET", "note": "[I23E]", "protein stability index": 3.48}, {"variant": "RDPFECNMCGYHSQDRYEFSSHQT", "note": "[I23Q]", "protein stability index": 2.21}, {"variant": "RDPFECNMCGYHSQDRYEFSSHST", "note": "[I23S]", "protein stability index": 2.5}, {"variant": "RDPFECNMCGYHSQDRYEFSSHLT", "note": "[I23L]", "protein stability index": 2.15}, {"variant": "RDPFECNMCGYHSQDRYEFSSHHT", "note": "[I23H]", "protein stability index": 2.57}, {"variant": "RDPFECNMCGYHSQDRYEFSSHTT", "note": "[I23T]", "protein stability index": 2.36}, {"variant": "RDPFECNMCGYHSQDRYEESSHIT", "note": "[F19E]", "protein stability index": 3.35}, {"variant": "RDPFECNMCGYHSQDRYEDSSHIT", "note": "[F19D]", "protein stability index": 3.29}, {"variant": "RDPFECNMCGYHSQDRYEISSHIT", "note": "[F19I]", "protein stability index": 2.4}, {"variant": "RDPFECNMCGYHSQDRYEWSSHIT", "note": "[F19W]", "protein stability index": 1.44}, {"variant": "RDPFECNMCGYHSQDRYEASSHIT", "note": "[F19A]", "protein stability index": 2.59}, {"variant": "RDPFECNMCGYHSQDRYELSSHIT", "note": "[F19L]", "protein stability index": 1.61}, {"variant": "RDPFECNMCGYHSQDRYEMSSHIT", "note": "[F19M]", "protein stability index": 2.28}, {"variant": "RDPFECNMCGYHSQDRYECSSHIT", "note": "[F19C]", "protein stability index": 2.39}, {"variant": "RDPFECNMCGYHSQDRYERSSHIT", "note": "[F19R]", "protein stability index": 2.38}, {"variant": "RDPFECNMCGYHSQDRYEYSSHIT", "note": "[F19Y]", "protein stability index": 2.47}, {"variant": "RDPFECNMCGYHSQDRYEHSSHIT", "note": "[F19H]", "protein stability index": 3.13}, {"variant": "RDPFECNMCGYHSQDRYEPSSHIT", "note": "[F19P]", "protein stability index": 3}, {"variant": "RDPFECNMCGYHSQDRYESSSHIT", "note": "[F19S]", "protein stability index": 2.6}, {"variant": "RDPFECNMCGYHSQDRYETSSHIT", "note": "[F19T]", "protein stability index": 2.94}, {"variant": "RDPFECNMCGYHSQDRYEVSSHIT", "note": "[F19V]", "protein stability index": 2.08}, {"variant": "RDPFECNMCGYHSQDRYEQSSHIT", "note": "[F19Q]", "protein stability index": 3.14}, {"variant": "RDPFECNMCGYHSQDRYENSSHIT", "note": "[F19N]", "protein stability index": 3.27}, {"variant": "RDPFECNMCGYHSQDRYEKSSHIT", "note": "[F19K]", "protein stability index": 3.06}, {"variant": "RDPFECNMCGYHSQDRYEGSSHIT", "note": "[F19G]", "protein stability index": 3.13}, {"variant": "RDPFECNMCGYHSQDRYEFSSMIT", "note": "[H22M]", "protein stability index": 1.79}, {"variant": "RDPFECNMCGYHSQDRYEFSSPIT", "note": "[H22P]", "protein stability index": 2.12}, {"variant": "RDPFECNMCGYHSQDRYEFSSDIT", "note": "[H22D]", "protein stability index": 2.7}, {"variant": "RDPFECNMCGYHSQDRYEFSSAIT", "note": "[H22A]", "protein stability index": 2.15}, {"variant": "RDPFECNMCGYHSQDRYEFSSNIT", "note": "[H22N]", "protein stability index": 2.28}, {"variant": "RDPFECNMCGYHSQDRYEFSSYIT", "note": "[H22Y]", "protein stability index": 2.84}, {"variant": "RDPFECNMCGYHSQDRYEFSSSIT", "note": "[H22S]", "protein stability index": 1.88}, {"variant": "RDPFECNMCGYHSQDRYEFSSLIT", "note": "[H22L]", "protein stability index": 1.81}, {"variant": "RDPFECNMCGYHSQDRYEFSSEIT", "note": "[H22E]", "protein stability index": 2.55}, {"variant": "RDPFECNMCGYHSQDRYEFSSKIT", "note": "[H22K]", "protein stability index": 1.92}, {"variant": "RDPFECNMCGYHSQDRYEFSSGIT", "note": "[H22G]", "protein stability index": 2.17}]}]}
